The results in this text go back to PMC12693483, “A screen for synthetic genetic interactions with the Saccharomyces cerevisiae hrq1ΔN allele”.

In the data set the target is T1, Hrq1 (Saccharomyces cerevisiae, UniProt Q05549 1-1077).
T1 sequence: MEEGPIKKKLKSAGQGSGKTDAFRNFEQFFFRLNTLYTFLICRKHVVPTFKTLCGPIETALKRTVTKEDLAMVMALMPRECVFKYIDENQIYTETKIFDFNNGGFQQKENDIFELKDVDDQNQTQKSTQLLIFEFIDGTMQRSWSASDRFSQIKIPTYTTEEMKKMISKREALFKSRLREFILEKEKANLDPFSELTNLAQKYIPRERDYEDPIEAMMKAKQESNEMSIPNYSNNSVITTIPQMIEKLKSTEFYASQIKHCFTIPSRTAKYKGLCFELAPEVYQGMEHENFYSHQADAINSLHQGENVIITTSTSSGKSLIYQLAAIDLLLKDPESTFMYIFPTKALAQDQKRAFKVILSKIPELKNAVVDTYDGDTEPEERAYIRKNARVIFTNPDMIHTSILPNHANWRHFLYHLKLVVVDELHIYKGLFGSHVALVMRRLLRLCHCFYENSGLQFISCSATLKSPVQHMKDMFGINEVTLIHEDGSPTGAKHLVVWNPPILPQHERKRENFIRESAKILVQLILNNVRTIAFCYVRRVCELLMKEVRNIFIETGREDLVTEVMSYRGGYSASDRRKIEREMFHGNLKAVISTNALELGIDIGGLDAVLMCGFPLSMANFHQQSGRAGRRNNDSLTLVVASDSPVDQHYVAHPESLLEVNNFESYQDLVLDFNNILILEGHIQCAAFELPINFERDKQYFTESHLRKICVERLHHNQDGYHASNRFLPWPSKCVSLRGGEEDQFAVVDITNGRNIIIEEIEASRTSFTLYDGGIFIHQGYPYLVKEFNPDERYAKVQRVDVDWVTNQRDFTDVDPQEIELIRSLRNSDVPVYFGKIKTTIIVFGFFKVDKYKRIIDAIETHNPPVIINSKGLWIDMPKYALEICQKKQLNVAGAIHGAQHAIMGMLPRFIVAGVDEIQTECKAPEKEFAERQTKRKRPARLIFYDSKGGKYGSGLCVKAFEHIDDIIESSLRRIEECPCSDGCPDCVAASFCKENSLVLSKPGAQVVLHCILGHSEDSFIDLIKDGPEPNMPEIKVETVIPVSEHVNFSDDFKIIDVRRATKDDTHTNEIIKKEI
The experiment in a line: EMSA; 0.2-5 nM protein; 7.5 mM MgOAc; no ATP stated; EMSA: 0.1 nM labelled DNA, 25 mM Na-HEPES pH 8.0, 5% glycerol, 50 mM NaOAc pH 7.6, 150 µM NaCl, 7.5 mM MgOAc, 0.01% Tween-20, 30 min at 30 °C; 8% 19:1 gel in 1x TBE. As to conditions: protein: recombinant; label: 5'-32P; single strand. On the technique in general: A gel shift assay detects complexes by their altered migration in electrophoresis.

In the case of TTTTTTTTTTTTTTTTTTTTTTTTTTTTTT (ssDNA) [poly(dT) 30mer], the binding result was “binds”.
